Source: article PMC11063897, “Structural analysis of the SAM domain of the Arabidopsis mitochondrial tRNA import receptor”
Where a chain is given by its changes, count along the chain named.

How the values were obtained:
Test in all cases: EMSA; 160 uM protein, 120 nM RNA; 15 mM Tris-HCl pH 7.0, 150 mM NaCl, 10% glycerol, 2 U/ul RNase inhibitor, 22 C, 15 min; 6% native TBE PAGE in 0.5x TBE
Conditions in all cases: protein: recombinant; tags: N-terminal His6, thrombin site; label: 5'-6-FAM
[1] = target: T1, Tric1 SAM domain Asp235Ala:Gly241Glu (Arabidopsis thaliana, UniProt Q9SCK3, D235A;G241E)
T1 sequence: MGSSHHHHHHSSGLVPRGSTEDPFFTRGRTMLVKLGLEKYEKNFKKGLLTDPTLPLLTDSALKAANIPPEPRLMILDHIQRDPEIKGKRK

[2] = target: T2, Tric1 SAM domain Gly241Glu (Arabidopsis thaliana, UniProt Q9SCK3, G241E)
T2 sequence: T1 sequence with A64D

[3] = target: T3, Tric1 SAM domain Asp235Ala (Arabidopsis thaliana, UniProt Q9SCK3, D235A)
T3 sequence: T1 sequence with E70G

Tric1 SAM domain WT = target: T4, Tric1 SAM domain WT (Arabidopsis thaliana, UniProt Q9SCK3)
T4 sequence: T1 sequence with A64D, E70G

B1: tRNAala T-arm (structured_RNA)
RNA: UCGCUUUGCAUGCGA
binding result [1]: no binding | binding result [2]: no binding | binding result [3]: no binding | binding result (Tric1 SAM domain WT): binds
